The target in assay [1] is T1, IL-10 receptor (IL-10R), mouse (mouse (endogenous in BMDMs and splenocytes)) (UniProt Q61727).
T1 sequence: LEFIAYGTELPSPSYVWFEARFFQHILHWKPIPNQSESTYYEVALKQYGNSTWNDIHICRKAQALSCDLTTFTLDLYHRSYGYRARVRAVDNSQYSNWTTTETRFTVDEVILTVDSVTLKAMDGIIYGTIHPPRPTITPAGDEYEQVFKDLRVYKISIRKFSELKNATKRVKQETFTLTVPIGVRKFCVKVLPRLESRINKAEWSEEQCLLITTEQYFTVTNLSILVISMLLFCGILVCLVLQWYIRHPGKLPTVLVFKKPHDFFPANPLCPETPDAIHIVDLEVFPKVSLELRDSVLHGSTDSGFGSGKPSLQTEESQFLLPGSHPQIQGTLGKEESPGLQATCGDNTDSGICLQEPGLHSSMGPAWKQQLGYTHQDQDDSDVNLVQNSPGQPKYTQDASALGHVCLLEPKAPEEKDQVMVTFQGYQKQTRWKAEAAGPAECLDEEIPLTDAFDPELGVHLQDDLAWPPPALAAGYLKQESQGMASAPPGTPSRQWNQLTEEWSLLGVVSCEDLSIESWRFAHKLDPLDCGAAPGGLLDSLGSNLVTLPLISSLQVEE

For assay [2], the target named is T1, IL-10 receptor (IL-10R), mouse (mouse (endogenous in BMDMs and splenocytes)). The source holds these as a separate data set.
For assay [3] the target is unchanged. The source holds these as a separate data set.
For assay [4] the target is unchanged. This is another data set of the same source.

We go through 9 molecules from article PMC7431522.

In the case of “natural human IL-10 (non-covalently linked) (from UniProt P22301 19-178) (ligand)”, in assay [1], the ED50, suppression of LPS-induced luciferase in mouse BMDMs (Figure 8A) was 0.87 ng/mL.

“natural mouse IL-10 with RRCHR changed to AACHR (from UniProt P18893 19-178) (ligand)” showed an ED50 of biological activity, dose-response, data as AUC (Figure 5B) in assay [2] of 0.96 ng/mL. Still for that read-out and setting: then “natural mouse IL-10 with RRCHR changed to ARCHA (from UniProt P18893 19-178) (ligand)”, with 59.3 ng/mL; and “natural mouse IL-10 with RRCHR changed to RACHR (from UniProt P18893 19-178) (ligand)”, with 0.28 ng/mL. In assay [3], “stable mouse IL-10 dimer, 7 amino acid linker (-G3SG3-) (ligand)” returned an ED50, half-maximal suppression of LPS-induced luciferase in hTNF.LucBAC BMDMs (Figure 2C) of 0.04 ng/mL and a suppression of LPS-induced luciferase in hTNF.LucBAC BMDMs, 10 ng/mL of 60%. Moreover, the ED50 of biological activity, dose-response, data as AUC (Figure 5D) in assay [2] worked out at 0.36 ng/mL. The molecule further yielded an ED50, suppression of LPS-induced luciferase in BMDMs (Figure 2H) in assay [4] of 0.45 ng/mL. Molecule “stable mouse IL-10 dimer, 9 amino acid linker (-G3SG4S-) (ligand)” registered an ED50, suppression of LPS-induced luciferase in BMDMs (Figure 2H) in assay [4] of 0.4 ng/mL. Still for that read-out and setting: the result for “stable mouse IL-10 dimer, 13 amino acid linker (-G3SG4-SG4-) (ligand)” reads 0.38 ng/mL.

B1: natural mouse IL-10 (non-covalently linked) (ligand)
chain: SRGQYSREDNNCTHFPVGQSHMLLELRTAFSQVKTFFQTKDQLDNILLTDSLMQDFKGYLGCQALSEMIQFYLVEVMPQAEKHGPEIKEHLNSLGEKLKTLRMRLRRCHRFLPCENKSKAVEQVKSDFNKLQDQGVYKAMNEFDIFINCIEAYMMIKMKS
Regarding B1, in assay [3], the ED50, half-maximal suppression of LPS-induced luciferase in hTNF.LucBAC BMDMs (Figure 2C) is 0.17 ng/mL and the suppression of LPS-induced luciferase in hTNF.LucBAC BMDMs, 10 ng/mL was determined as 60%. This molecule also gave an ED50 of biological activity, dose-response, data as AUC (Figure 5B) in assay [2] of 0.1 ng/mL. Moreover, the ED50, suppression of LPS-induced luciferase in BMDMs (Figure 2H) in assay [4] turned out to be 1.5 ng/mL.

B2: commercial mouse IL-10 (ligand)
chain: SRGQYSREDNNCTHFPVGQSHMLLELRTAFSQVKTFFQTKDQLDNILLTDSLMQDFKGYLGCQALSEMIQFYLVEVMPQAEKHGPEIKEHLNSLGEKLKTLRMRLRRCHRFLPCENKSKAVEQVKSDFNKLQDQGVYKAMNEFDIFINCIEAYMMIKMKS
In assay [3], B2 returned a suppression of LPS-induced luciferase in hTNF.LucBAC BMDMs, 10 ng/mL of 60%.
